This note sets out measurements from patent US20210009714A1 (Regeneron, published 2021).

Assay [1] has as its target T1, human Fc* homodimer (human).
T1 construct: also called Fc*/Fc*; human ΔAdpFc polypeptide
The assay is described as follows: SPR (Biacore 2000); mAb captured on anti-mouse-Fc surface, Fc dimer injected; 1:1 fit. Background: In SPR one partner is held on a chip, and binding of the other changes the refractive index at the surface.
Protocol: Measurements to determine binding affinities and kinetic constants were made on a Biacore 2000 instrument. […] Kinetic association (kₐ) and dissociation (kd) rate constants were determined by processing and fitting the data to a 1:1 binding model using Scrubber 2.0 curve fitting software.

The target in assay [2] is IgG1 Fc/Fc monospecific antibody. The assay is described as follows: flow cytometry sandwich: antibody displayed on cells by CSCP FcγR, labeled Ab6 as detection molecule. (In flow cytometry, cells or beads pass a laser one at a time.)
The target of assay [3] is IgG1 Fc*/Fc* monospecific antibody. Described as above.
The target of assay [4] is IgG1 Fc/Fc* bispecific antibody. Described as above.
The target in assay [5] is IgG1 Fc/Fc monospecific antibody. The assay can be described thus: flow cytometry sandwich: antibody displayed on cells by CSCP ScFv-FcγR, hFc block, FITC-labeled Ab6 as detection molecule.
Assay [6] deals with IgG4 Fc/Fc monospecific antibody. Described as above.
In assay [7] the target is IgG1 Fc/Fc* bispecific antibody. Described as above.
For assay [8], the target named is IgG4 Fc/Fc* bispecific antibody. The description is as above.
Assay [9] addresses T2, Tie2 (UniProt Q02763 23-748, limits assumed).
T2 construct: also called Tie2 receptor
The assay can be described thus: BIAcore.

For assay [10], the target named is IgG1 Fc/Fc monospecific antibody. The assay can be described thus: flow cytometry sandwich: antibody displayed on cells by CSCP FcγR, labeled Ab2 as detection molecule.
The target in assay [11] is IgG4 Fc/Fc monospecific antibody. Described as above.
Assay [12] concerns the target IgG1 Fc/Fc* bispecific antibody. Described as above.
For assay [13], the target named is IgG4 Fc/Fc* bispecific antibody. The assay is described as above.
In assay [14] the target is IgG4 Fc*/Fc* monospecific antibody. Described as above.

T2 sequence (Q02763 23-748 limits assumed): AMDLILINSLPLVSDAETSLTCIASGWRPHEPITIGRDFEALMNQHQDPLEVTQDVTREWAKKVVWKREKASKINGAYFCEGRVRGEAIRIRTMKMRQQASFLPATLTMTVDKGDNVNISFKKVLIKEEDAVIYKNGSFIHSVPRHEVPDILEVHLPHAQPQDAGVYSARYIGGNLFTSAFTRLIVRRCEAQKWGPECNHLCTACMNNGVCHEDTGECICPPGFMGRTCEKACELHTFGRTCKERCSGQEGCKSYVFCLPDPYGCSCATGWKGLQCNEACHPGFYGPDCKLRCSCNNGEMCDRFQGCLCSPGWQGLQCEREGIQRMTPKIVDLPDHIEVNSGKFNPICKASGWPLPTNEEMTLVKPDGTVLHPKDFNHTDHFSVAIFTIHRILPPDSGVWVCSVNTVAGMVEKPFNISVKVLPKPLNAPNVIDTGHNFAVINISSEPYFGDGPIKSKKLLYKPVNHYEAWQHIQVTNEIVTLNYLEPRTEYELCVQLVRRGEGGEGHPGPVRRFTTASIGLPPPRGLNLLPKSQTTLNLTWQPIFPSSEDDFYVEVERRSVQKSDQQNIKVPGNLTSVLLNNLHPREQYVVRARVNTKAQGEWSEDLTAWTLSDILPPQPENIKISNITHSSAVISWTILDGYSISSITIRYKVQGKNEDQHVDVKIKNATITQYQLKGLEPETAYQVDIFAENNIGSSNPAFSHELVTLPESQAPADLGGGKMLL

B1: Ab6 (antibody, mouse IgG2a, kappa, V domains shown)
VH: EVQLVESGGAIVKPGGSHRVSCEASGFTFSNAWMSWVRQAPGRGLEWVGRILSKTDGGTTDYAAPVKDRFTISRDDSKNMLFLQMDSLKIEDTAVYFCTTADFWSAYSSDYWGQGTLVTVSS
VL: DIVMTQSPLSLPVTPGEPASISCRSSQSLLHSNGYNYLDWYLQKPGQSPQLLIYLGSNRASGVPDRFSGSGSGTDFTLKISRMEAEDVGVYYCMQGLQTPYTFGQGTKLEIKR
notes: also called Fc*-specific Ab6; Ab6 anti-Fc* antibody
As to B1, the t1/2 in [1] was found to be 19 min. Also, the MFI in [2] was found to be 200; in assay [3], 200; in assay [4] it was 200; in assay [5], 15; in [6], 15; in assay [7], 500. Further, in [8], the MFI came out at 500.

B2: FD1-hFc (Fc fusion, UniProt Q15389 277-498, looked up)
chain: REEEKPFRDCADVYQAGFNKSGIYTIYINNMPEPKKVFCNMDVNGGGWTVIQHREDGSLDFQRGWKEYKMGFGNPSGEYWLGNEFIFAITSQRQYMLRIELMDWEGNRAYSQYDRFHIGNEKQNYRLYLKGHTGTAGKQSSLILHGADFSTKDADNDNCMCKCALMLTGGWWFDACGPSNLNGMFYTAGQNHGKLNGIKWHYFKGPSYSLRSTTMMIRPLDF
notes: also called FD1-Fc; not shown: hFc
Broadly, the Kd is a measure of binding affinity in units of concentration. Lower therefore signals higher affinity. For B2, in assay [9], the Kd was determined as 174 nM.

B3: Ab2 (antibody, V domains shown)
VH: QLQQSGAELAKPGASVKMSCKASGYTFTNYWIHWEKQRPEQGLEWIGYINPNTGHTEYNQKFKDKATLTADRSSSTAYMQLSSLTSEDSAVYFCARTYSGSSHFDYWGQGTTL
VL: DIVMTQTPVSLPVSLGDQASISCRSSQSLVHNNGDTFLHWYLQKPGQSPKLLIYKVSNRFSGVPDRFSGSGSGTDFTLKISRVEAEDLGVYFCSQTTLIPRTFGGGTKLEI
notes: Monoclonal from Velocimmune mice, captured on an anti-mouse-Fc surface in the SPR study; also called Fc-specific Ab2; Ab2 anti-Fc antibody
B3: the MFI in assay [10] was 350; in assay [11] it was 200; in assay [12], 500; in assay [13] it was 200; in assay [14] it was 200.
